One block for each binder: values may come before it.
Target: human FcγRIIb on Huvec-2b cells (Homo sapiens (Human)., UniProt P31994)
Assay: flow cytometry on cells

Chain of human FcγRIIb on Huvec-2b cells (P31994 43-310): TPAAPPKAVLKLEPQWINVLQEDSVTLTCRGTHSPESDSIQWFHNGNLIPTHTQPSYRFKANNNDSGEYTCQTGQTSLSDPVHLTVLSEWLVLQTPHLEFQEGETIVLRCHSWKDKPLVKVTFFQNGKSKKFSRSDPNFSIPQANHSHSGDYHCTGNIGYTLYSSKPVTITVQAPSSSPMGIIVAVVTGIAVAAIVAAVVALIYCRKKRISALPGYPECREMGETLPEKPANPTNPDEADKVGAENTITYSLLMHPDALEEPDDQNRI

binding result: binds
B1: SK3-Fc (Fc fusion, human)
VH: QVLVETGGGVVQPGRSLRLSCAASGFTFSSYGMHWVRQAPGKGLEWVAVISYDGDDKDYADSVKGRFTISRDNADSSVFLQMNSLRAEDTALYYCAREGQWVGGALDIWGQGTMVTVSS
VL: DIVMTQSPSTLSASLGDTVTITCRASQSINGWLAWYQQKPGKAPNLLIYQAPNLESGVPSRFSGSGSGTEFTLTINGLQPDDFATYYCQKYDNAPHTFGQGTKVEIK

binding result: binds
B2: SK4-Fc (Fc fusion, human)
VH: QVQLVETGGGVVQVGRSLRLSCAASGFTFSHYGMHWVRQAPGKGLEWVSGISWNSDRRGYADSVKGRFTISRDNTKNSLYLQMNSLRAEDTAVYYCVREFYDAFDIWGQGTMVTVSS
VL: DIQMTQSPSSLPAYVGDRVTISCRASQSIRTYLNWYRQKVGKAPELLVYDASSLHKGVPSRFSASGSGTDFSLTISSLQPEDFATYYCQQSFSSPRTFGQGTKVEIK
